From US20240384250A1, “FIBROBLAST GROWTH FACTOR 23 MODULATING COMPOUNDS” (THE UAB RESEARCH FOUNDATION, priority 2021, published 2024) come the findings set out here.

“Also recorded” adds a separate entry of the source.

For assay [1], the system named is FGF1, FGF2, FGF7, FGF19, FGF21. Kind of assay: Plate-based binding assay, other FGF isoforms coated, FLAG-sKL detected with anti-FLAG HRP. The note with it: 10 ng FGF coated, 40 ng FLAG-sKL. Set-up: species or system human. As to the method: (§1) Proteins were coated on 96-well plates (MaxiSorp; 439454, Thermo Fisher Scientific), and proteins were added to wells in 100 μl of enzyme-linked immunosorbent assay (ELISA) coating buffer (E107, Bethyl Laboratories) with a lid placed overtop and incubated at 4° C. overnight. Plates were washed 5× with 350 μl of assay buffer (50 mM Tris [pH 7.4], 200 mM NaCl, 0.01% Tween 20) on a 50 TS microplate washer (BioTek). Plates were blocked for 1 hour in 200 μl of assay buffer with 0.5% BSA. Plates were washed as before, and proteins were incubated on plates in 100 μl of assay buffer with 0.5% BSA. Proteins or heparin was incubated in orders described in the respective figure legends. Assays using FLAG-tag-based detection were incubated with anti-FLAG coupled to HRP at 1:20,000, and assays using Fc detection were incubated with anti-human Fc coupled to HRP at 1:10,000. […] Reactions were stopped with ELISA stop solution (E115, Bethyl Laboratories) and analyzed using the Synergy HI plate reader (BioTek) at 450 nm wavelength. […] As a control to remove background absorbance values, wells were coated with an equal amount of BSA to match the amount of protein coated in experimental wells and treated the same as experimental wells. […]

The target in the next assay is T1, FGFR4 (Homo sapiens, UniProt P22455).
T1 construct: Fc-FGFR4 protein (human ectodomain) was immobilized; purchased R&D Systems 685FR050
T1 sequence (P22455 22-369 limits assumed): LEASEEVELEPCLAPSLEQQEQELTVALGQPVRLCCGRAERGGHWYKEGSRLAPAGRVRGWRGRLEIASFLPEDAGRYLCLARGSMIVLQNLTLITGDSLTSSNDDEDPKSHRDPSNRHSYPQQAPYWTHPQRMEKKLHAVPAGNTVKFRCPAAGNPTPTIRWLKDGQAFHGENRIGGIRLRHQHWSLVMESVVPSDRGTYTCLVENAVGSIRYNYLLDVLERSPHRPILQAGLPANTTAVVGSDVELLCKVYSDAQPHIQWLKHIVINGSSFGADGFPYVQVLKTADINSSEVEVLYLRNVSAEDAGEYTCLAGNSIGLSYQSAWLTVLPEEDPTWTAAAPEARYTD
Kind of assay: Plate-based binding assay, FGFR4 coated, FLAG-sKL detected with anti-FLAG HRP. The note with it: 40 ng FGFR4 coated, 80 ng FLAG-sKL, compared with FGFR1c. How it is done:
as §1

The target of a further assay is T2, FGF23 binding to FGFR1c (Homo sapiens, UniProt P11362+Q9GZV9).
T2 construct: Fc-coupled FGFR ectodomains were immobilized on protein A/G beads; purchased R&D Systems 2604FG025/CF or 2629FG025/CF; 658FR050
T2 sequence (Q9GZV9 25-251): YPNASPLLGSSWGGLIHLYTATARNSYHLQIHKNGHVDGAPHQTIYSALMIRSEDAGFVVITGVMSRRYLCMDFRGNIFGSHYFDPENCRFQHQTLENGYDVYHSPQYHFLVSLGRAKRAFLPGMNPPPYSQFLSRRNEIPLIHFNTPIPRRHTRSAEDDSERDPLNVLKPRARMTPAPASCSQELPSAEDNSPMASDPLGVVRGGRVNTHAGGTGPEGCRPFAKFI
T2 sequence (P11362 22-376 limits assumed): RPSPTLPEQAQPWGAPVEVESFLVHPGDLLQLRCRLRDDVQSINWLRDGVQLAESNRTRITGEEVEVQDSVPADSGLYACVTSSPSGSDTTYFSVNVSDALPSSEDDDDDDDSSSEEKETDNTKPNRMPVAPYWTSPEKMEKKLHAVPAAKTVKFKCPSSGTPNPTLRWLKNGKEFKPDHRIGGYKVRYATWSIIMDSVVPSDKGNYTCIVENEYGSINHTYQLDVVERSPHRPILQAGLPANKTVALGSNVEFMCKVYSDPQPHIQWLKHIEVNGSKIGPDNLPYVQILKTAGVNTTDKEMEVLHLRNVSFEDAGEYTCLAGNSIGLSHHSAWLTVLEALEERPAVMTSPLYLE
Kind of assay: Plate-based binding, FGF23 coated, then sKL, heparin or PBS, then Fc-FGFR. The note with it: with sKL, with heparin 0.4 USP, or alone. How it is done: (§2) Proteins were coated on 96-well plates (MaxiSorp; 439454, Thermo Fisher Scientific), and proteins were added to wells in 100 μl of enzyme-linked immunosorbent assay (ELISA) coating buffer (E107, Bethyl Laboratories) with a lid placed overtop and incubated at 4° C. overnight. Plates were washed 5× with 350 μl of assay buffer (50 mM Tris [pH 7.4], 200 mM NaCl, 0.01% Tween 20) on a 50 TS microplate washer (BioTek). Plates were blocked for 1 hour in 200 μl of assay buffer with 0.5% BSA. Plates were washed as before, and proteins were incubated on plates in 100 μl of assay buffer with 0.5% BSA. Proteins or heparin was incubated in orders described in the respective figure legends. Assays using FLAG-tag-based detection were incubated with anti-FLAG coupled to HRP at 1:20,000, and assays using Fc detection were incubated with anti-human Fc coupled to HRP at 1:10,000. Plates were washed as above, and 100 μl of 3,3′,5,5′-tetramethylbenzidine (TMB) substrate (E102, Bethyl Laboratories) was added for 15 to 20 minutes until positive wells developed a dark blue color. Reactions were stopped with ELISA stop solution (E115, Bethyl Laboratories) and analyzed using the Synergy HI plate reader (BioTek) at 450 nm wavelength. […] As a control to remove background absorbance values, wells were coated with an equal amount of BSA to match the amount of protein coated in experimental wells and treated the same as experimental wells. To study the effects of sKL on the binding between paracrine FGFs and FGFRs, plates were run as above except coated with paracrine FGFs. Fc-FGFR1 was preincubated with sKL or vehicle for 60 minutes, and then the combination was added to wells and the assay was run as before.

The target in a further assay is T3, FGF23 binding to FGFR2c (Homo sapiens, UniProt P21802).
T3 construct: Fc-coupled FGFR ectodomains were immobilized on protein A/G beads; purchased R&D Systems 2604FG025/CF or 2629FG025/CF; 712FR050
T3 sequence (P21802 22-377 limits assumed): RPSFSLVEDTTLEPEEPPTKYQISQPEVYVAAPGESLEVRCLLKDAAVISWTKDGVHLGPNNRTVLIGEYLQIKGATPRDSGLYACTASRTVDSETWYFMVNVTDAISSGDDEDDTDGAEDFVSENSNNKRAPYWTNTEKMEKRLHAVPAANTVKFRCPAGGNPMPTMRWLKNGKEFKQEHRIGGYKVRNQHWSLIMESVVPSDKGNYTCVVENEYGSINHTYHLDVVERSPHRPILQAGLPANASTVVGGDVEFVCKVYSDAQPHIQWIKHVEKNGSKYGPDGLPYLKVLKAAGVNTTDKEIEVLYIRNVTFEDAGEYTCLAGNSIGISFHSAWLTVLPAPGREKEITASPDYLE
The description is as above. To be noted: with sKL, with heparin 0.4 USP, or alone. As to the method:
as §2

A further assay addresses T4, FGF23 binding to FGFR3c (Homo sapiens, UniProt P22607+Q9GZV9).
T4 construct: Fc-coupled FGFR ectodomains were immobilized on protein A/G beads; purchased R&D Systems 2604FG025/CF or 2629FG025/CF; 766FR050
T4 sequence (Q9GZV9 25-251): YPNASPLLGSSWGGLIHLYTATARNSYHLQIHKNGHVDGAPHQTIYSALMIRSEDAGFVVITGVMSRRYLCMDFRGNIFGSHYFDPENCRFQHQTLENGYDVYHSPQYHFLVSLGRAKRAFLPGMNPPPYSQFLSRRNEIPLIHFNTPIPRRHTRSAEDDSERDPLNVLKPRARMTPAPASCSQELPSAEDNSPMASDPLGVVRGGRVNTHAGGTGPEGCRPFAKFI
T4 sequence (P22607 23-375 limits assumed): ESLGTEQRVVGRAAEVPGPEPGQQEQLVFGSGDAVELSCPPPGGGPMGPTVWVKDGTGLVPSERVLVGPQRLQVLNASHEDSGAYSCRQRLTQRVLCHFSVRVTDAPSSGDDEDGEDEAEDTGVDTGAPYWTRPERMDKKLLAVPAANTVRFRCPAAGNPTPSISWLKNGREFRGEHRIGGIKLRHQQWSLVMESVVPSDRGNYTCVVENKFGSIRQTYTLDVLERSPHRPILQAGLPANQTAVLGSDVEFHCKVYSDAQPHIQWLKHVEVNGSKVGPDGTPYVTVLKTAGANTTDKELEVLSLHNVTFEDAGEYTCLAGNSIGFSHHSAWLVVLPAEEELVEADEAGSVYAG
The description is as above. The note with it: with sKL, with heparin 0.4 USP, or alone. How it is done:
as §2

B1: sKL: recombinant soluble α-klotho ectodomain, mouse aa 35-982 and human aa 34-981, FLAG- or Strep/His-tagged, purified from HEK293 cells (protein)
chain: EPGDGAQTWARFSRPPAPEAAGLFQGTFPDGFLWAVGSAAYQTEGGWQQHGKGASIWDTFTHHPLAPPGDSRNASLPLGAPSPLQPATGDVASDSYNNVFRDTEALRELGVTHYRFSISWARVLPNGSAGVPNREGLRYYRRLLERLRELGVQPVVTLYHWDLPQRLQDAYGGWANRALADHFRDYAELCFRHFGGQVKYWITIDNPYVVAWHGYATGRLAPGIRGSPRLGYLVAHNLLLAHAKVWHLYNTSFRPTQGGQVSIALSSHWINPRRMTDHSIKECQKSLDFVLGWFAKPVFIDGDYPESMKNNLSSILPDFTESEKKFIKGTADFFALCFGPTLSFQLLDPHMKFRQLESPNLRQLLSWIDLEFNHPQIFIVENGWFVSGTTKRDDAKYMYYLKKFIMETLKAIKLDGVDVIGYTAWSLMDGFEWHRGYSIRRGLFYVDFLSQDKMLLPKSSALFYQKLIEKNGFPPLPENQPLEGTFPCDFAWGVVDNYIQVDTTLSQFTDLNVYLWDVHHSKRLIKVDGVVTKKRKSYCVDFAAIQPQIALLQEMHVTHFRFSLDWALILPLGNQSQVNHTILQYYRCMASELVRVNITPVVALWQPMAPNQGLPRLLARQGAWENPYTALAFAEYARLCFQELGHHVKLWITMNEPYTRNMTYSAGHNLLKAHALAWHVYNEKFRHAQNGKISIALQADWIEPACPFSQKDKEVAERVLEFDIGWLAEPIFGSGDYPWVMRDWLNQRNNFLLPYFTEDEKKLIQGTFDFLALSHYTTILVDSEKEDPIKYNDYLEVQEMTDITWLNSPSQVAVVPWGLRKVLNWLKFKYGDLPMYIISNGIDDGLHAEDDQLRVYYMQNYINEALKAHILDGINLCGYFAYSFNDRTAPRFGLYRYAADQFEPKASMKHYRKIIDSNGFPGPETLERFCPEEFTVCTECSFFHTRKS
modifications: left off: small tags and cut ends
notes: recombinant soluble α-klotho ectodomain, mouse aa 35-982 and human aa 34-981, FLAG- or Strep/His-tagged, purified from HEK293 cells
Take B1: the “binding of FLAG-sKL to other coated FGF isoforms” value in assay [1] was “not observed”. For the same molecule, the “binding of FLAG-sKL to coated FGFR4” value with FGFR4 was “to a lesser extent”; with FGFR4 (listed as FLAG-sKL) it was “to a lower extent”. In addition, the “binding of coated FGF23 to Fc-FGFR1c” value in the assay with FGF23 binding to FGFR1c is on record as “highest FGF23-sKL affinities; also recorded: increased; also recorded: the strongest”. In the assay with FGF23 binding to FGFR2c, the “binding of coated FGF23 to Fc-FGFR2c” value is “no binding”. Further, the “binding of coated FGF23 to Fc-FGFR3c” value with FGF23 binding to FGFR3c is given as “lower affinity; also recorded: weaker binding”.
